Measured values from US20220119448A1.

Columns and labels:
[1] = target: GLP-2R (GLP-2 receptor) on GLP-2R/Luc-CHO cells; assay: cell-based or functional assay
GHR on Ba/f3-GHR cells = assay: cell-based or functional assay

| in vitro cytological activity, EC50 (luciferase reporter, GLP-2R/Luc-CHO cells) [1] [nM] | In vitro cytological activity, EC50 (Ba/f3-GHR cells, MTT) (GHR on Ba/f3-GHR cells) [nM] | Substance |
| --- | --- | --- |
| 5.2 |  | GLP-2 (Hangzhou Chinese Peptide Biochemical Co., Ltd., Cat. No: GLUC-002A) |
|  | 0.54 | hGH (human auxin) (from UniProt P01241 27-217) (ligand) |
